Assay: SEC; Superdex 200 10/300 GL, phosphate-buffered saline, 0.5 mL/min, ambient temperature, UV 280 nm; the SEC 'monomer' peak is the native covalent dimer

Sequence of dulaglutide, original reference drug (Trulicity) (chain): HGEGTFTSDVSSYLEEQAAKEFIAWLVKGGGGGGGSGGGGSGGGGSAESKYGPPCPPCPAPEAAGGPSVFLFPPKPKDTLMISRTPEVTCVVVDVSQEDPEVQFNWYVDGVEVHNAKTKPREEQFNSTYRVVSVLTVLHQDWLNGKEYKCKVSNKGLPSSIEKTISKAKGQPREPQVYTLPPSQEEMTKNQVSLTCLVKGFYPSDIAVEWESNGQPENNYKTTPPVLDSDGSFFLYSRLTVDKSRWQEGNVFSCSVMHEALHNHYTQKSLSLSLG

In the case of “dulaglutide, original reference drug (Trulicity)”, the “percent in the SEC 'monomer' peak (the native covalent dimer)” value is reported as 97.5% monomeric form in the Trulicity sample.

From PMC12736101
